Assay results from PMC3900722.

Target: hemocyanin from Fissurella latimarginata (Fissurella latimarginata)
Assay: negative-stain transmission electron microscopy; purified FLH 100 µg/ml on parlodion-coated copper grid, stained with 1-2% aqueous uranyl acetate, 80 kV; quaternary structure of the assembled protein

- stoichiometry N: 20 subunits
Substance: hemocyanin from Fissurella latimarginata (natural protein)
